Substrate in the data set: O=C(O)CC(C(=O)O)C(O)C(=O)O
Nature of the data set: purified protein. The settings on record: no activators, 2 mM Mn2+, 3.2 mM NAD, 33 mM Tris-acetate pH 7.4, 25 °C, Hill 2.0, racemic DL-ICT varied. The class given is biochemical, Homo sapiens.

Residue numbers refer to the chain shown, from its start. Names and notes keep the numbering of the source.

The kcat/Km is the turnover number divided by the Michaelis constant.

B1: αγ heterodimer of human NAD-IDH (IDH3) (Homo sapiens) (protein)
chain 1: TGGVQTVTLIPGDGIGPEISAAVMKIFDAAKAPIQWEERNVTAIQGPGGKWMIPSEAKESMDKNKMGLKGPLKTPIAAGHPSMNLLLRKTFDLYANVRPCVSIEGYKTPYTDVNIVTIRENTEGEYSGIEHVIVDGVVQSIKLITEGASKRIAEFAFEYARNNHRSNVTAVHKANIMRMSDGLFLQKCREVAESCKDIKFNEMYLDTVCLNMVQDPSQFDVLVMPNLYGDILSDLCAGLIGGLGVTPSGNIGANGVAIFESVHGTAPDIAGKDMANPTALLLSAVMMLRHMGLFDHAARIEAACFATIKDGKSLTKDLGGNAKCSDFTEEICRRVKDLD
chain 2: FSEQTIPPSAKYGGRHTVTMIPGDGIGPELMLHVKSVFRHACVPVDFEEVHVSSNADEEDIRNAIMAIRRNRVALKGNIETNHNLPPSHKSRNNILRTSLDLYANVIHCKSLPGVVTRHKDIDILIVRENTEGEYSSLEHESVAGVVESLKIITKAKSLRIAEYAFKLAQESGRKKVTAVHKANIMKLGDGLFLQCCREVAARYPQITFENMIVDNTTMQLVSRPQQFDVMVMPNLYGNIVNNVCAGLVGGPGLVAGANYGHVYAVFETATRNTGKSIANKNIANPTATLLASCMMLDHLKLHSYATSIRKAVLASMDNENMHTPDIGGQGTTSEAIQDVIRHIRVINGRAVEA
notes: alpha and gamma co-expressed in E. coli BL21(DE3) from pQlinkN; gamma C-terminal TEV-His6, His6 cleaved by TEV; 80 kDa heterodimer (dimer of heterodimers at high concentration)
Turning to B1, the K0.5 was determined as 4.49 ± 0.15 mM and the kcat/Km turned out to be 2160 ± 30 M⁻¹ s⁻¹.

B2: αγ heterodimer of human NAD-IDH (IDH3) (Homo sapiens; P50213:N202A) (protein)
chain 1: B1 chain 1 with N175A
chain 2: B1 chain 2
notes: as for B1
On to B2, for which, where the note is “Hill 1.2”, the K0.5 worked out at 5.80 ± 0.84 mM and the kcat/Km stood at 290 ± 10 M⁻¹ s⁻¹.

B3: αγ heterodimer of human NAD-IDH (IDH3) (Homo sapiens; P50213:K200A) (protein)
chain 1: B1 chain 1 with K173A
chain 2: B1 chain 2
notes: as for B1
Regarding B3, under “Hill 1.2”, the K0.5 came to 6.38 ± 1.27 mM and the kcat/Km came to 380 ± 30 M⁻¹ s⁻¹.

Source of the values: publication PMC5241874.
